# From patent US20240115706A1
# Columns and labels:
# [1] = target: mouse GUCY2C-rCD4 fusion protein (Mus musculus (house mouse); Rattus norvegicus); assay: ELISA (DELFIA), antigen on streptavidin plate, scFv culture solution, Eu-anti-tag Ab
# [2] = target: monkey GUCY2C-rCD4 fusion protein (Macaca fascicularis (crab-eating macaque); Rattus norvegicus); assay: as above
# monkey GUCY2C-rCD4 fusion protein (Macaca fascicularis (crab-eating macaque); Rattus norvegicus), sequence (chain, as listed by the source limits assumed): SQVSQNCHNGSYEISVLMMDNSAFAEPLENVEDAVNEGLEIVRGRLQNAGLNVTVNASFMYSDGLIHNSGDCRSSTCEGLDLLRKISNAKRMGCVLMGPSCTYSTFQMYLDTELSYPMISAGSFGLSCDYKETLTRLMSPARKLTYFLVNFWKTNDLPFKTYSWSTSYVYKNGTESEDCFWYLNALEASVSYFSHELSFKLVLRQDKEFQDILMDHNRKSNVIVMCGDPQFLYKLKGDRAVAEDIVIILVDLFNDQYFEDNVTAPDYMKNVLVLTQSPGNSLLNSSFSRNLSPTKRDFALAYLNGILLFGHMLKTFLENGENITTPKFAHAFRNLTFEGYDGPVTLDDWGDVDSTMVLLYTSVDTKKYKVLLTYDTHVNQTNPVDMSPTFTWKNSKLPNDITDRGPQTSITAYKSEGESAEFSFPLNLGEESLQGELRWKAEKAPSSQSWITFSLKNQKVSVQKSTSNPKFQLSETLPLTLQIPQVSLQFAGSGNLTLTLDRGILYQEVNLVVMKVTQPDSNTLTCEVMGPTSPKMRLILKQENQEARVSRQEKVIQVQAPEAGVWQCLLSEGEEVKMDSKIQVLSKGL
Binder,Binding ELISA signal [1],Binding ELISA signal [2]
scFv A03 (scFv) scFv: QVQLVQSGAEVKKPGSSVKVSCKASGGTFSSYTISWVRQAPGQELEWMGRIIPILGIANYAQKFQGRVTITADKSTSTAYMELSSLRSEDTAVYYCARDYSSSWNSMDVWGQGTLVTVSSGGGGSGGGGSGGGASQSGLTQPPSASGSPGQSVTISCTGTSSDIGYYHYVSWYQQHPGKAPKLMIYEDSKRPSGISNRFSGSKSGTTASLTVSGLQAEDEAHYYCSSFTSRSTWVFGGGTQLTVL,77,–
scFv A04 (scFv) scFv: EVQLVQPGAEVKKPGSSVKVSCKASGGTLSSYAISWVRQAPGQGLEWMGRIIPILGITNYAQKFQGRVTITADKSTSTAYMELSSLRSEDTAVYFCARDQRPASMDVWGQGTLVTVSSGGGGSGGGGSGGGASQSELTQPASVSGSPGQSITISCTGTSSDVGGYIYVSWYQQHPGKVPKLMIHDVSHRPSGVSNRFSGSRSGNTASLTISGLQAEDEADYFCSSYTSSNNYYFGTGTKVTVL,66,73
scFv A02 (scFv) scFv: EVQLVQPGAEVKKPGSSVKVSCKASGGTLSSYAISWVRQAPGQGLEWMGRIIPILGITNYAQKFQGRVTITADKSTSTAYMELSSLRSEDTAVYFCARDQRPASMDVWGQGTLVTVSSGGGGSGGGGSGGGASQSELTQPASVSGSPGQSITISCTGTSSDVGGYIYVSWYQQHPGKVPKLMIHDVSHRPSGVSNRFSGSRSGNTASLTISGLQAEDEADYFCSSYAGSNNYVFGTGTKVTVL,74,60
scFv A05 (scFv) scFv: QVQLVQSGAEVKKPGSSVKVSCKASGGTFSSYTITWVRQAPGQGLEWMGRIIPVLGIANYAQKFQGRVTITADKSTSTAYMELSSLRSEDTAVYYCARDYSSSWNSMDVWGQGTLVTVSSGGGGSGGGGSGGGASQSGLTQPRSVSGSPGQSVTISCTGTSSDVGGYNYVSWYQQHPGKAPKLMIYDVSKRPSGVPDRFSGSKSGNTASLTVSGLHAEDEADYYCSSYAGSNNFVFGTGTKVTVL,62,89
scFv A01 (scFv) scFv: QVQLVQSGAEVKKPGASVKVSCKASGYTFTSYYMHWVRQAPGQGLEWMGIINPSGGSTSYAQEFQGRVTMTRDTSTSTVYMELSSLRSEDTAVYYCARDGQWLQFDYWGQGTLVTVSSGGGGSGGGGSGGGASDIVMTQSPLSLPVTLGQPASISCRSSQSLLKKSDGNTYLSWYHQRPGQSPRRLIYKVSNRDSGVPDRFSGSGSDTDFTLKISRVETEDVGIYYCMQGSHWPPTFGQGTKVEIK,352,–

# Now from value to binder:
Binding ELISA signal [1],Binding ELISA signal [2],Binder
48,–,scFv B12 (scFv) scFv: QVQLVESGGGLVKPGGSLRLSCAASGFTFSSYSMNWVRQAPGKGLEWVSVIYSGGSTHYADSVKGRFTISRHNSKNTLYLQMNSLRAEDTAVYYCARGAGTLNAFDIWGQGTTVTVSSGGGGSGGGGSGGGASQSGLTQPPSTSGSPGQSVTISCTGTSSDVGAYSYVSWYQQHPGKAPKLLIYAVTKRPSGVPDRFSGSKSGNTASLTVSGLQDEDEADYYCSSFAGGSTLVFGGGTKLTVL
61,–,scFv C02 (scFv) scFv: QVQLVQSGAEVKKPGSSVKVSCKASGGTFSSYTISWVRQAPGQGLEWMGRIIPILGIANYAQKFQGRVTITADKSTSTAYMELSSLRSEDTAVYYCARDRSYNWLDPWGRGTLVTVSSGGGGSGGGGSGGGASQSALTQPVSVSGSPGQSITISCTGTISDVGDYNYVSWYQQHPGKAPKLMIYDVNNRPSGVSNRFSGSKSGNTASLTISGLQAEDEADYYCSSYTSSSTLVFGGGTKLTVL
66,–,scFv B07 (scFv) scFv: EVQLVQSGAEVKRPGSSVKVSCKASGYTFTSYYMHWVRQAPGQGLEWMGIINPSGGSTSYAQKFQGRVTMTRDTSTSTVYMELSSLRSEDTAVYYCAAGTYSSGWTIDYWGQGTTVTVSSGGGGSGGGGSGGGASDIVMTQSPLSLPVTLGQPASISCRSSQSLVYTDGNTYLNWFQQRPGQSPRRLIYKVSNRDSGVPDRFSGSGSGTDFTLKISRVEAEDVGIYYCMHSKQWPPTFGGGTKVEIK
70,–,scFv B01 (scFv) scFv: EVQLVQPGAEVKKPGSSVKVSCKASGGTLSSYAISWVRQAPGQGLEWMGRIIPILGITNYAQKFQGRVTITADKSTSTAYMELSSLRSEDTAVYFCARDQRPASMDVWGQGTLVTVSSGGGGSGGGGSGGGASQSGLTQPASVSGSPGQSITISCTGTSSDVGGYNYVSWYQQHPGKAPKLMIYEVSNRPSGVSNRFSGSKSGNTASLTISGLQAEDEADYYCSTVTSLSTYVFGTGTKLTVL
53,56,scFv A12 (scFv) scFv: EVQLVQPGAEVKKPGSSVKVSCKASGGTLSSYAISWVRQAPGQGLEWMGRIIPILGITNYAQKFQGRVTITADKSTSTAYMELSSLRSEDTAVYFCARDQRPASMDVWGQGTLVTVSSGGGGSGGGGSGGGASQSELTQPASVSGSPGQSITISCTGTSSDVGGYIYVSWYQQHPGKVPKLMIHDVSHRPSGVSNRFSGSRSGNTASLTISGLQAEDEADYFCSSYTSSNNYVFGTGTKVTVL
80,–,scFv A06 (scFv) scFv: QVQLVQSGAEVKKPGSSVKVSCKASGGTFGSYTISWVRQAPGQGLEWMGRIIPILGIANYAQKFQGRVTITADKSTSTAYMELSSLRSEDTAVYYCARDYSSSWNSMDVWGQGTLVTVSSGGGGSGGGGSGGGASQSGLTQPRSVSGSPGQSVTISCTGTSSDVGAYNYVSWYQQHPGKAPKLMIYEVSKRPSGVPDRFSASKSGNTASLTVSGLQAEDEADYYCSSYAGSNNWVFGGGTKLTVL
